In paper PMC13397619:

B1: NLV2 TCR alpha chain (CDR3α only) (parent)
chain: AGPMKTSYDKVI
partner: NLVGMVATV

Variants of: B1
Assay: T-Switch: Jurkat TCRβ−/− cells expressing a CDR3 saturation-mutagenesis library, stained with two peptide-HLA-A*02:01 tetramers (original and novel peptide) plus anti-CD3, FACS-sorted into four gates, gDNA sequenced
Conditions: with HLA-A*02:01 with peptide … (NLV 2-2, the original bait), tetramers 1 µg/mL, 30 min on ice, DP and SW gates expanded about 10 days between rounds ('two to three rounds of selection' in the Methods), gate SP: higher = more of the variant in the gate that binds the original peptide and not the novel one = retained original binding. Fold enrichment of the CDR3 variant in one FACS gate of a two-tetra, unresolved parent, parent is a CDR3 fragment, scale: fold enrichment, numbering: sequential-on-construct, sequence …
Variant […] (CDR3 as printed); I12G derived by comparing it with the table's wild-type CDR3 AGPMKTSYDKVI has an enrichment of 0.
[…] (CDR3 as printed); Y8V derived by comparing it with the table's wild-type CDR3 AGPMKTSYDKVI was tested, and the enrichment was 0.
Variant […] (CDR3 as printed); I12W derived by comparing it with the table's wild-type CDR3 AGPMKTSYDKVI has an enrichment of 0.
Variant […] (CDR3 as printed); Y8G derived by comparing it with the table's wild-type CDR3 AGPMKTSYDKVI has an enrichment of 0.
With […] (CDR3 as printed); P3S derived by comparing it with the table's wild-type CDR3 AGPMKTSYDKVI the enrichment was 0.
[…] (CDR3 as printed); P3A derived by comparing it with the table's wild-type CDR3 AGPMKTSYDKVI showed an enrichment of 0.
In the case of […] (CDR3 as printed); M4G derived by comparing it with the table's wild-type CDR3 AGPMKTSYDKVI, the enrichment is reported as 0.
Variant […] (CDR3 as printed); K5C derived by comparing it with the table's wild-type CDR3 AGPMKTSYDKVI has an enrichment of 0.
[…] (CDR3 as printed); G2A derived by comparing it with the table's wild-type CDR3 AGPMKTSYDKVI was tested, and the enrichment was 0.952.
In the case of […] (CDR3 as printed); T6N derived by comparing it with the table's wild-type CDR3 AGPMKTSYDKVI, the enrichment is reported as 0.
[…] (CDR3 as printed); G2L derived by comparing it with the table's wild-type CDR3 AGPMKTSYDKVI gave an enrichment of 0.
[…] (CDR3 as printed); D9V derived by comparing it with the table's wild-type CDR3 AGPMKTSYDKVI gave an enrichment of 0.
With […] (CDR3 as printed); V11L derived by comparing it with the table's wild-type CDR3 AGPMKTSYDKVI the enrichment was 0.
Variant […] (CDR3 as printed); G2M derived by comparing it with the table's wild-type CDR3 AGPMKTSYDKVI has an enrichment of 0.715.
With […] (CDR3 as printed); S7G derived by comparing it with the table's wild-type CDR3 AGPMKTSYDKVI the enrichment was 0.
For […] (CDR3 as printed); M4N derived by comparing it with the table's wild-type CDR3 AGPMKTSYDKVI, the enrichment was 0.
[…] (CDR3 as printed); M4Y derived by comparing it with the table's wild-type CDR3 AGPMKTSYDKVI gave an enrichment of 0.292.
[…] (CDR3 as printed); T6M derived by comparing it with the table's wild-type CDR3 AGPMKTSYDKVI was tested, and the enrichment was 0.
For […] (CDR3 as printed); T6S derived by comparing it with the table's wild-type CDR3 AGPMKTSYDKVI, the enrichment was 0.
With […] (CDR3 as printed); S7M derived by comparing it with the table's wild-type CDR3 AGPMKTSYDKVI the enrichment was 0.
Variant […] (CDR3 as printed); I12L derived by comparing it with the table's wild-type CDR3 AGPMKTSYDKVI has an enrichment of 0.259.
[…] (CDR3 as printed); K10W derived by comparing it with the table's wild-type CDR3 AGPMKTSYDKVI was tested, and the enrichment was 0.
In the case of […] (CDR3 as printed); G2D derived by comparing it with the table's wild-type CDR3 AGPMKTSYDKVI, the enrichment is reported as 0.
[…] (CDR3 as printed); T6Q derived by comparing it with the table's wild-type CDR3 AGPMKTSYDKVI showed an enrichment of 0.
For […] (CDR3 as printed); M4K derived by comparing it with the table's wild-type CDR3 AGPMKTSYDKVI, the enrichment was 0.788.
In the case of […] (CDR3 as printed); M4E derived by comparing it with the table's wild-type CDR3 AGPMKTSYDKVI, the enrichment is reported as 27.
With […] (CDR3 as printed); M4S derived by comparing it with the table's wild-type CDR3 AGPMKTSYDKVI the enrichment was 7.99.
With […] (CDR3 as printed); I12F derived by comparing it with the table's wild-type CDR3 AGPMKTSYDKVI the enrichment was 2.21.
With […] (CDR3 as printed); Y8L derived by comparing it with the table's wild-type CDR3 AGPMKTSYDKVI the enrichment was 0.
[…] (CDR3 as printed); K5S derived by comparing it with the table's wild-type CDR3 AGPMKTSYDKVI showed an enrichment of 4.22.
Work on […] (CDR3 as printed); S7A derived by comparing it with the table's wild-type CDR3 AGPMKTSYDKVI yielded an enrichment of 3.32.
[…] (CDR3 as printed); S7E derived by comparing it with the table's wild-type CDR3 AGPMKTSYDKVI was tested, and the enrichment was 0.
[…] (CDR3 as printed); K5W derived by comparing it with the table's wild-type CDR3 AGPMKTSYDKVI gave an enrichment of 5.12.
With […] (CDR3 as printed); V11Q derived by comparing it with the table's wild-type CDR3 AGPMKTSYDKVI the enrichment was 0.
For […] (CDR3 as printed); K5E derived by comparing it with the table's wild-type CDR3 AGPMKTSYDKVI, the enrichment was 21.3.
[…] (CDR3 as printed); T6H derived by comparing it with the table's wild-type CDR3 AGPMKTSYDKVI was tested, and the enrichment was 0.
[…] (CDR3 as printed); M4A derived by comparing it with the table's wild-type CDR3 AGPMKTSYDKVI showed an enrichment of 8.93.
[…] (CDR3 as printed); M4L derived by comparing it with the table's wild-type CDR3 AGPMKTSYDKVI gave an enrichment of 0.
For […] (CDR3 as printed); Y8M derived by comparing it with the table's wild-type CDR3 AGPMKTSYDKVI, the enrichment was 0.
Work on […] (CDR3 as printed); K10Q derived by comparing it with the table's wild-type CDR3 AGPMKTSYDKVI yielded an enrichment of 1.98.
[…] (CDR3 as printed); Y8S derived by comparing it with the table's wild-type CDR3 AGPMKTSYDKVI gave an enrichment of 0.
[…] (CDR3 as printed); K5L derived by comparing it with the table's wild-type CDR3 AGPMKTSYDKVI was tested, and the enrichment was 0.
With […] (CDR3 as printed); K10G derived by comparing it with the table's wild-type CDR3 AGPMKTSYDKVI the enrichment was 0.
For […] (CDR3 as printed); G2R derived by comparing it with the table's wild-type CDR3 AGPMKTSYDKVI, the enrichment was 0.
Variant […] (CDR3 as printed); P3I derived by comparing it with the table's wild-type CDR3 AGPMKTSYDKVI has an enrichment of 1.59.
With […] (CDR3 as printed); I12M derived by comparing it with the table's wild-type CDR3 AGPMKTSYDKVI the enrichment was 0.
With […] (CDR3 as printed); G2Y derived by comparing it with the table's wild-type CDR3 AGPMKTSYDKVI the enrichment was 0.
For […] (CDR3 as printed); T6R derived by comparing it with the table's wild-type CDR3 AGPMKTSYDKVI, the enrichment was 0.
[…] (CDR3 as printed); T6L derived by comparing it with the table's wild-type CDR3 AGPMKTSYDKVI was tested, and the enrichment was 0.
Work on […] (CDR3 as printed); A1T derived by comparing it with the table's wild-type CDR3 AGPMKTSYDKVI yielded an enrichment of 0.262.
With […] (CDR3 as printed); I12S derived by comparing it with the table's wild-type CDR3 AGPMKTSYDKVI the enrichment was 0.
Variant […] (CDR3 as printed); G2F derived by comparing it with the table's wild-type CDR3 AGPMKTSYDKVI has an enrichment of 0.
With […] (CDR3 as printed); S7P derived by comparing it with the table's wild-type CDR3 AGPMKTSYDKVI the enrichment was 0.
[…] (CDR3 as printed); A1S derived by comparing it with the table's wild-type CDR3 AGPMKTSYDKVI was tested, and the enrichment was 0.551.
[…] (CDR3 as printed); Y8E derived by comparing it with the table's wild-type CDR3 AGPMKTSYDKVI showed an enrichment of 0.105.
[…] (CDR3 as printed); K5R derived by comparing it with the table's wild-type CDR3 AGPMKTSYDKVI gave an enrichment of 0.
Work on […] (CDR3 as printed); T6W derived by comparing it with the table's wild-type CDR3 AGPMKTSYDKVI yielded an enrichment of 0.
[…] (CDR3 as printed); P3C derived by comparing it with the table's wild-type CDR3 AGPMKTSYDKVI gave an enrichment of 0.
Variant […] (CDR3 as printed); V11G derived by comparing it with the table's wild-type CDR3 AGPMKTSYDKVI has an enrichment of 0.
Work on […] (CDR3 as printed); A1R derived by comparing it with the table's wild-type CDR3 AGPMKTSYDKVI yielded an enrichment of 0.
For […] (CDR3 as printed); P3R derived by comparing it with the table's wild-type CDR3 AGPMKTSYDKVI, the enrichment was 0.
With […] (CDR3 as printed); D9Y derived by comparing it with the table's wild-type CDR3 AGPMKTSYDKVI the enrichment was 0.
[…] (CDR3 as printed); K10Y derived by comparing it with the table's wild-type CDR3 AGPMKTSYDKVI was tested, and the enrichment was 4.15.
In the case of […] (CDR3 as printed); S7W derived by comparing it with the table's wild-type CDR3 AGPMKTSYDKVI, the enrichment is reported as 0.
For […] (CDR3 as printed); Y8W derived by comparing it with the table's wild-type CDR3 AGPMKTSYDKVI, the enrichment was 0.
[…] (CDR3 as printed); D9Q derived by comparing it with the table's wild-type CDR3 AGPMKTSYDKVI gave an enrichment of 0.
Variant […] (CDR3 as printed); I12C derived by comparing it with the table's wild-type CDR3 AGPMKTSYDKVI has an enrichment of 0.
[…] (CDR3 as printed); I12E derived by comparing it with the table's wild-type CDR3 AGPMKTSYDKVI gave an enrichment of 0.34.
[…] (CDR3 as printed); A1V derived by comparing it with the table's wild-type CDR3 AGPMKTSYDKVI was tested, and the enrichment was 0.
In the case of […] (CDR3 as printed); K5H derived by comparing it with the table's wild-type CDR3 AGPMKTSYDKVI, the enrichment is reported as 4.24.
Variant […] (CDR3 as printed); K5V derived by comparing it with the table's wild-type CDR3 AGPMKTSYDKVI has an enrichment of 1.08.
With […] (CDR3 as printed); P3M derived by comparing it with the table's wild-type CDR3 AGPMKTSYDKVI the enrichment was 0.
[…] (CDR3 as printed); M4C derived by comparing it with the table's wild-type CDR3 AGPMKTSYDKVI showed an enrichment of 0.
Work on […] (CDR3 as printed); G2V derived by comparing it with the table's wild-type CDR3 AGPMKTSYDKVI yielded an enrichment of 0.
Work on […] (CDR3 as printed); D9W derived by comparing it with the table's wild-type CDR3 AGPMKTSYDKVI yielded an enrichment of 0.
Work on […] (CDR3 as printed); K10S derived by comparing it with the table's wild-type CDR3 AGPMKTSYDKVI yielded an enrichment of 0.
[…] (CDR3 as printed); P3E derived by comparing it with the table's wild-type CDR3 AGPMKTSYDKVI showed an enrichment of 0.526.
[…] (CDR3 as printed); K5P derived by comparing it with the table's wild-type CDR3 AGPMKTSYDKVI gave an enrichment of 9.21.
[…] (CDR3 as printed); G2P derived by comparing it with the table's wild-type CDR3 AGPMKTSYDKVI showed an enrichment of 0.351.
Work on […] (CDR3 as printed); K10T derived by comparing it with the table's wild-type CDR3 AGPMKTSYDKVI yielded an enrichment of 0.
In the case of […] (CDR3 as printed); V11N derived by comparing it with the table's wild-type CDR3 AGPMKTSYDKVI, the enrichment is reported as 0.
In the case of […] (CDR3 as printed); D9R derived by comparing it with the table's wild-type CDR3 AGPMKTSYDKVI, the enrichment is reported as 0.
[…] (CDR3 as printed); K10M derived by comparing it with the table's wild-type CDR3 AGPMKTSYDKVI was tested, and the enrichment was 0.
